From US8822645B2, “Prostaglandin E2 dual variable domain immunoglobulins and uses thereof” (AbbVie Inc., priority 2008, dated 2014) come the findings set out here.

In one assay the test system is target antigen. Briefly: BIACORE affinity determination of parent antibodies and DVD-Ig constructs. It is filed as binding. The note with it: antigen IL-6R, 25° C. How it is done:
The BIACORE assay (Biacore, Inc, Piscataway, N.J.) determines the affinity of antibodies or DVD-Ig with kinetic measurements of on-rate and off-rate constants. […] All chemicals are obtained from Biacore® AB (Uppsala, Sweden) or otherwise from a different source as described in the text. For example, approximately 5000 RU of goat anti-mouse IgG, (Fcγ), fragment specific polyclonal antibody (Pierce Biotechnology Inc, Rockford, Ill.) diluted in 10 mM sodium acetate (pH 4.5) is directly immobilized across a CM5 research grade biosensor chip using a standard amine coupling kit according to manufacturer's instructions and procedures at 25 μg/ml. Unreacted moieties on the biosensor surface are blocked with ethanolamine. Modified carboxymethyl dextran surface in flowcell 2 and 4 is used as a reaction surface. Unmodified carboxymethyl dextran without goat anti-mouse IgG in flow cell 1 and 3 is used as the reference surface. For kinetic analysis, rate equations derived from the 1:1 Langmuir binding model are fitted simultaneously to association and dissociation phases of all eight injections (using global fit analysis) with the use of Biaevaluation 4.0.1 software. Purified antibodies or DVD-Ig are diluted in HEPES-buffered saline for capture across goat anti-mouse IgG specific reaction surfaces. Antibodies or DVD-Ig to be captured as a ligand (25 μg/ml) are injected over reaction matrices at a flow rate of 5 μl/min. The association and dissociation rate constants, kon (M^−1 s^−1) and koff (s^−1) are determined under a continuous flow rate of 25 μl/min. Rate constants are derived by making kinetic binding measurements at different antigen concentrations ranging from 10-200 nM. The equilibrium dissociation constant (M) of the reaction between antibodies or DVD-Igs and the target antigen is then calculated from the kinetic rate constants by the following formula: KD=koff/kon. Binding is recorded as a function of time and kinetic rate constants are calculated. In this assay, on-rates as fast as 10^6 M^−1 s^−1 and off-rates as slow as 10^−6 s^−1 can be measured.
(In SPR one partner is held on a chip, and binding of the other changes the refractive index at the surface.)

Assay [1] deals with stable cell lines overexpressing a cell-surface antigen of interest or human tumor cell lines. The assay can be described thus: Flow cytometry (FACS) binding to cell surface antigen. It is filed as cell-based. The note with it: IL-6R VD in N-terminal position; 2 μg/mL. The protocol:
Stable cell lines overexpressing cell-surface antigen of interest or human tumor cell lines were harvested from tissue culture flasks and resuspended in phosphate buffered saline (PBS) containing 5% fetal calf serum (PBS/FCS). Prior to staining, human tumor cells were incubated on ice with human IgG at 200 μg/ml in PBS/FCS. 1-5×10^5 cells were incubated with antibody or DVD-Ig (1-2 μg/mL) in PBS/FCS for 30-60 minutes on ice. […] After 30 minutes incubation on ice, cells were washed twice and resuspended in PBS/FCS. Fluorescence was measured using a Becton Dickinson FACSCalibur (Becton Dickinson, San Jose, Calif.).
Stable cell lines overexpressing a cell-surface antigen of interest or human tumor cell lines were harvested from tissue culture flasks and resuspended in phosphate buffered saline (PBS) containing 5% fetal bovine serum (PBS/FBS). Prior to staining, human tumor cells were incubated on ice with (100 μl) human IgG at 5 μg/ml in PBS/FCS. 1-5×10^5 cells were incubated with antibody or DVD-Ig (2 μg/mL) in PBS/FBS for 30-60 minutes on ice. […] After 30 minutes incubation on ice, cells were washed twice and resuspended in PBS/FBS. Fluorescence was measured using a Becton Dickinson FACSCalibur (Becton Dickinson, San Jose, Calif.).
The geometric mean is the n root of the multiplication product of n fluorescent signals (a1×a2×a3 . . . an). […]
For orientation: A flow cytometer gives signals particle by particle.

B1: DVD152: DVD-Ig construct listed in Table 4 (antibody)
VH: EVQLQESGPGLVRPSQTLSLTCTVSGYSITSDHAWSWVRQPPGRGLEWIGYISYSGITTYNPSLKSRVTMLRDTSKNQFSLRLSSVTAADTAVYYCARSLARTTAMDYWGQGSLVTVSSASTKGPEVQLVQSGAEVKKPGASVKVSCKASGYTFTKYWLGWVRQAPGQGLEWMGDIYPGYDYTHYNEKFKDRVTLTTDTSTSTAYMELRSLRSDDTAVYYCARSDGSSTYWGQGTLVTVSS
VL: DIQMTQSPSSLSASVGDRVTITCRASQDISSYLNWYQQKPGKAPKLLIYYTSRLHSGVPSRFSGSGSGTDFTFTISSLQPEDIATYYCQQGNTLPYTFGQGTKVEIKRTVAAPDVLMTQTPLSLPVTPGEPASISCTSSQNIVHSNGNTYLEWYLQKPGQSPQLLIYKVSNRFSGVPDRFSGSGSGTDFTLKISRVEAEDVGVYYCFQVSHVPYTFGGGTKVEIKR
On to B1, for which the results for the koff with target antigen (IL-6R binding by C-terminal domain) and with target antigen (IL-6R binding by N-terminal domain) were 0.00015 s⁻¹ and 0.000115 s⁻¹, respectively. Further, the “FACS Geometric Mean N-terminal” value in assay [1] turned out to be 9.13.

The term koff denotes the rate constant with which the complex falls apart.
